Columns and labels:
Test in all cases: purified protein
[1] = system: O=C(O)CC(=O)C(=O)O; conditions: 0.18 mM MnCl2, 100 mM Tris-HCl pH 8.0
[2] = system: NC[C@H](N)C(=O)O; conditions: oxalyl-CoA made in situ by excess PanE from 1 mM CoA, 1 mM NADP+, 1 mM glyoxylate, 50 mM Tris-HCl pH 7.5, 30 °C
[3] = substrate: O=CC(=O)O; type: biochemical, Saccharomyces cerevisiae; conditions: 2 mM cytochrome c, 100 mM sodium phosphate pH 7.5

Fpoah (Fomitopsis palustris)
Km [1]: 420 µM
Vmax [1]: 22.8 µM/min/mg

LsBAHD (Lathyrus sativus)
Km [2]: 520 µM
Vmax [2]: 2.88 µM/min/mg

B1: Scgloxdh (Cyb2p) (Saccharomyces cerevisiae S288C) (protein)
chain: EPKLDMNKQKISPAEVAKHNKPDDCWVVINGYVYDLTRFLPNHPGGQDVIKFNAGKDVTAIFEPLHAPNVIDKYIAPEKKLGPLQGSMPPELVCPPYAPGETKEDIARKEQLKSLLPPLDNIINLYDFEYLASQTLTKQAWAYYSSGANDEVTHRENHNAYHRIFFKPKILVDVRKVDISTDMLGSHVDVPFYVSATALCKLGNPLEGEKDVARGCGQGVTKVPQMISTLASCSPEEIIEAAPSDKQIQWYQLYVNSDRKITDDLVKNVEKLGVKALFVTVDAPSLGQREKDMKLKFSNTKAGPKAMKKTNVEESQGASRALSKFIDPSLTWKDIEELKKKTKLPIVIKGVQRTEDVIKAAEIGVSGVVLSNHGGRQLDFSRAPIEVLAETMPILEQRNLKDKLEVFVDGGVRRGTDVLKALCLGAKGVGLGRPFLYANSCYGRNGVEKAIEILRDEIEMSMRLLGVTSIAELKPDLLDLSTLKARTVGVPNDVLYNEVYEGPTLTEFEDA
Km [3]: 740 µM
Vmax [3]: 0.66 µM/min/mg

Source: PMC9485241, “Biosynthesis of plant hemostatic dencichine in Escherichia coli” (Nature Communications, 2022)
